Assay results as given in patent US20260055148A1 (USTAV ORGANICKE CHEMIE A BIOCHEMIE AV CR V V I, published 2026).
Positions count from the first letter of the chain named. Names and notes keep the numbering of the source.

Assays:
His-C3d N1134A (human) [1] = biological target: His-C3d N1134A (human) (UniProt P01024); experiment: SPR BIAcore T200, biotinylated ISG65-Avi immobilised, C3d N1134A as analyte; koff1
His-C3d N1134A (human) [2] = biological target: His-C3d N1134A (human) (UniProt P01024); experiment: SPR, relative to wild type C3d
His-C3d N1134A (human) [3] = biological target: His-C3d N1134A (human) (UniProt P01024); experiment: SPR BIAcore T200, biotinylated ISG65-Avi immobilised, C3d N1134A as analyte
His-C3d N1134A (human) [4] = biological target: His-C3d N1134A (human) (UniProt P01024); experiment: SPR BIAcore T200, biotinylated ISG65-Avi immobilised, C3d N1134A as analyte; kon1
[5] = biological target: T1, C3b (human complement C3b) (human, UniProt P01024 23-667; P01024 749-1663); experiment: cell-based or functional assay
[6] = biological target: T2, His-C3d-Avi, biotinylated (human complement C3d with N-terminal His-tag and C-terminal Avi-tag) (human, UniProt P01024 996-1303, site-specific biotinylation of the C-terminal Avi-tag); experiment: SPR BIAcore T200, biotinylated C3d-Avi immobilised, ISG65 as analyte; koff1
T2 construct: domain: C3d; SPR ligand for the ISG65 mutants; not shown: N-terminal His-tag (pET15b); C-terminal Avi-tag

[7] = biological target: T2, His-C3d-Avi, biotinylated (human …); experiment: SPR BIAcore T200, biotinylated C3d-Avi immobilised, ISG65 as analyte
[8] = biological target: T2, His-C3d-Avi, biotinylated (human …); experiment: SPR BIAcore T200, biotinylated C3d-Avi immobilised, ISG65 as analyte; kon1
[9] = biological target: T3, Native human complement C3 (human, UniProt P01024 23-667; P01024 672-1663); experiment: SPR BIAcore T200, biotinylated ISG65-Avi immobilised, native C3 as analyte; overall KD of a two-step fit (kon1, kon2, koff1, koff2)
T3 construct: mature; also called native C3; human C3

[10] = biological target: T4, C3 (H2O) (human complement C3 with hydrolysed thioester) (human, UniProt P01024 23-667; P01024 672-1663); experiment: SPR BIAcore T200, biotinylated ISG65-Avi immobilised, C3 (H2O) as analyte
T4 construct: mature

[11] = biological target: T5, His-C3d (recombinant human complement C3d, wild type) (human, UniProt P01024 996-1303); experiment: SPR BIAcore T200, biotinylated ISG65-Avi immobilised, C3d Wt as analyte
T5 construct: domain: C3d; Produced in E. coli; also called C3d Wt; TED; not shown: His-tag

[12] = biological target: T1, C3b (human complement C3b); experiment: SPR BIAcore T200, biotinylated ISG65-Avi immobilised, C3b as analyte; kon1
[13] = biological target: T3, Native human complement C3; experiment: SPR BIAcore T200, biotinylated ISG65-Avi immobilised, native C3 as analyte; kon1; kon1, first step of the two-step fit
[14] = biological target: T4, C3 (H2O) (human complement C3 with …); experiment: SPR BIAcore T200, biotinylated ISG65-Avi immobilised, C3 (H2O) as analyte; kon1
[15] = biological target: T5, His-C3d (recombinant human complement …); experiment: SPR BIAcore T200, biotinylated ISG65-Avi immobilised, C3d Wt as analyte; kon1
His-C3d L1109A [16] = biological target: T6, His-C3d L1109A (human, UniProt P01024 996-1303); experiment: SPR BIAcore T200, biotinylated ISG65-Avi immobilised, C3d L1109A as analyte
T6 construct: domain: C3d; not shown: His-tag

[17] = biological target: T7, C3a (ANA domain of human complement C3, released) (human, UniProt P01024 672-748); experiment: SPR BIAcore T200, biotinylated ISG65-Avi immobilised, C3a as analyte
T7 construct: domain: C3a

[18] = biological target: T1, C3b (human complement C3b); experiment: SPR BIAcore T200, biotinylated ISG65-Avi immobilised, C3b as analyte
[19] = biological target: T1, C3b (human complement C3b); experiment: SPR BIAcore T200, biotinylated ISG65-Avi immobilised, C3b as analyte; koff1
[20] = biological target: T3, Native human complement C3; experiment: SPR BIAcore T200, biotinylated ISG65-Avi immobilised, native C3 as analyte; koff1; koff1, first step of the two-step fit
[21] = biological target: T5, His-C3d (recombinant human complement …); experiment: SPR BIAcore T200, biotinylated ISG65-Avi immobilised, C3d Wt as analyte; koff1
[22] = biological target: T8, C3c (fragment of human complement C3) (human, UniProt P01024 23-667; P01024 749-954; P01024 1321-1663); experiment: SPR, biotinylated ISG65 immobilised, C3c as analyte
T8 construct: domain: C3c

His-C3d E1110A = biological target: T9, His-C3d E1110A (human, UniProt P01024 996-1303); experiment: SPR, relative to wild type C3d
T9 construct: domain: C3d; not shown: His-tag

His-C3d L1109A [23] = biological target: T6, His-C3d L1109A; experiment: SPR, relative to wild type C3d
[24] = biological target: T5, His-C3d (recombinant human complement …); experiment: SPR, relative to wild type C3d
[25] = biological target: T4, C3 (H2O) (human complement C3 with …); experiment: SPR BIAcore T200, biotinylated ISG65-Avi immobilised, C3 (H2O) as analyte; koff1
[26] = biological target: T2, His-C3d-Avi, biotinylated (human …); experiment: SPR BIAcore T200, biotinylated C3d-Avi immobilised, ISG65 mutant as analyte
[27] = biological target: T2, His-C3d-Avi, biotinylated (human …); experiment: SPR BIAcore T200, biotinylated C3d-Avi immobilised, ISG65 mutant as analyte; kon1; kon1, first step of the two-step fit
[28] = biological target: T2, His-C3d-Avi, biotinylated (human …); experiment: SPR, relative to wild type ISG65
[29] = biological target: T2, His-C3d-Avi, biotinylated (human …); experiment: SPR BIAcore T200, biotinylated C3d-Avi immobilised, ISG65 mutant as analyte; overall KD of a two-step fit (kon1, kon2, koff1, koff2)
[30] = biological target: T2, His-C3d-Avi, biotinylated (human …); experiment: SPR BIAcore T200, biotinylated C3d-Avi immobilised, ISG65 mutant as analyte; koff1; koff1, first step of the two-step fit
[31] = biological target: T2, His-C3d-Avi, biotinylated (human …); experiment: SPR BIAcore T200, biotinylated C3d-Avi immobilised, ISG65 mutant as analyte; kon1
[32] = biological target: T2, His-C3d-Avi, biotinylated (human …); experiment: SPR BIAcore T200, biotinylated C3d-Avi immobilised, ISG65 mutant as analyte; koff1

T1 sequence (P01024 23-667 limits assumed, chain 1 of 2): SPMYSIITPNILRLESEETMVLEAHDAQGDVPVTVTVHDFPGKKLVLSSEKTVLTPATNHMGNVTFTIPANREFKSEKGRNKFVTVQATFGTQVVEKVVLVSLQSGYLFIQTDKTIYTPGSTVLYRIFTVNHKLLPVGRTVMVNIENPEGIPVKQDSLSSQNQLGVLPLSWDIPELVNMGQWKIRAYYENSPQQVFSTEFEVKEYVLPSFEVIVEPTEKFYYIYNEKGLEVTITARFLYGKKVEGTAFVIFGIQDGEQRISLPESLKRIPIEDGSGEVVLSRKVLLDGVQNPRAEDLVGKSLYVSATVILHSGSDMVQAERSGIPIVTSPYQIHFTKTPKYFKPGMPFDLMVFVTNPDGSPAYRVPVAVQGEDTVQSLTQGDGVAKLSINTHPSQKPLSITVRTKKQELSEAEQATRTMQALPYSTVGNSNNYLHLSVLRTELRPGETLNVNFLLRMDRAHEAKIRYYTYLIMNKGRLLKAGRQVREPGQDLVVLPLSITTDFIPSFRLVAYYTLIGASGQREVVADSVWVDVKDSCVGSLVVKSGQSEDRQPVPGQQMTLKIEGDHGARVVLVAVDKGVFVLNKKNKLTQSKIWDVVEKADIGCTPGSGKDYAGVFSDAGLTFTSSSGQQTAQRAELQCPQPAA
T1 sequence (P01024 749-1663 limits assumed, chain 2 of 2): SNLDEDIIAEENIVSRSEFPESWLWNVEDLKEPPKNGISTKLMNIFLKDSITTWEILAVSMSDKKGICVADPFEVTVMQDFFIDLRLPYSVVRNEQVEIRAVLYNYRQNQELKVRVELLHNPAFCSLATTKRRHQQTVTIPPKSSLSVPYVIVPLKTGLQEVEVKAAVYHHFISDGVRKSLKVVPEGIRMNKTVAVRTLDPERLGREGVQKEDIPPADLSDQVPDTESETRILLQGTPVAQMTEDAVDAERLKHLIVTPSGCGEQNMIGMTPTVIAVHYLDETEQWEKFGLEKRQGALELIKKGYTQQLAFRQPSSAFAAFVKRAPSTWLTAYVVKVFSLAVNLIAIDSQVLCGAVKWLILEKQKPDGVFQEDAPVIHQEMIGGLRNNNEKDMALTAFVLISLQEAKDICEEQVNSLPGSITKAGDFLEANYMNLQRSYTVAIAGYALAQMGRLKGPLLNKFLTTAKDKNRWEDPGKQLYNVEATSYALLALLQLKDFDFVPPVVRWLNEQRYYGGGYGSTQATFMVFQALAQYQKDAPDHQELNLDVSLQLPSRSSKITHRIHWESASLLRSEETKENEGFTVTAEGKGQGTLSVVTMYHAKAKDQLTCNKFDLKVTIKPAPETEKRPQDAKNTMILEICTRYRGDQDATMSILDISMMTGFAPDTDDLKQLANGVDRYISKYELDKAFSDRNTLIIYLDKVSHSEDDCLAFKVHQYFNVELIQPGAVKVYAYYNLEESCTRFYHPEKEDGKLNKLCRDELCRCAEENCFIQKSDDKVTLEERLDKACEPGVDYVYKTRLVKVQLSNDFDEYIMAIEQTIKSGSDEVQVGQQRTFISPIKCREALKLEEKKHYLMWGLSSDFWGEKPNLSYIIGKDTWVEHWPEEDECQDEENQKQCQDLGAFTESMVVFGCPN
T4 sequence (P01024 23-667 limits assumed, chain 1 of 2): as the sequence (P01024 23-667 limits assumed, chain 1 of 2) above
T4 sequence (P01024 672-1663 limits assumed, chain 2 of 2): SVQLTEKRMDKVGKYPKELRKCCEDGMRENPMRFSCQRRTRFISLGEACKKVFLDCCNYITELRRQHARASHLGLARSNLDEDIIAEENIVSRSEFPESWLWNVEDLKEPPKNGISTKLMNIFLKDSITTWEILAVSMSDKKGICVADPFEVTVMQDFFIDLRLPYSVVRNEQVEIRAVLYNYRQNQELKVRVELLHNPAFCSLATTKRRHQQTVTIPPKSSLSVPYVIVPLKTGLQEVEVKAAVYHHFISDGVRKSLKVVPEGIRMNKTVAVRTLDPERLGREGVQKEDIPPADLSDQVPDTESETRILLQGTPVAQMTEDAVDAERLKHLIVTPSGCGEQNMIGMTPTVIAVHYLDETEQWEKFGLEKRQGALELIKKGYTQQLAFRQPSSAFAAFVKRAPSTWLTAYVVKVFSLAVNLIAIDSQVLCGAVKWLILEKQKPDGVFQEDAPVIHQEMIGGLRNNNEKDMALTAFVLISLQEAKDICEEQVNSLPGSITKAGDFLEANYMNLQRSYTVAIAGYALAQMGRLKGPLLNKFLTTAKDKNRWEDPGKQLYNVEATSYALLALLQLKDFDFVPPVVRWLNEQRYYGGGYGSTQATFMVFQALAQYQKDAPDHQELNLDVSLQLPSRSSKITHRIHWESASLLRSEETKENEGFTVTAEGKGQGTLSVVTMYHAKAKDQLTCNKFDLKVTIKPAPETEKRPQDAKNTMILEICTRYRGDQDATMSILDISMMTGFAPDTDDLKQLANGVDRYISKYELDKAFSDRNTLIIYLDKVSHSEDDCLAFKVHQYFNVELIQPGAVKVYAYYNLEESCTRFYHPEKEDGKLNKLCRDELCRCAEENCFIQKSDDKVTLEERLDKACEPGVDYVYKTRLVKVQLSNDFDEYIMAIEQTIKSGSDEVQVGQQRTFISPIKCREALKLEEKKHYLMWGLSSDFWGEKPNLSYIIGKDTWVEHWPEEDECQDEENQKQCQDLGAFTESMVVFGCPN
T3 sequence (P01024 23-667 limits assumed, chain 1 of 2): as the sequence (P01024 23-667 limits assumed, chain 1 of 2) above
T3 sequence (P01024 672-1663 limits assumed, chain 2 of 2): as the sequence (P01024 672-1663 limits assumed, chain 2 of 2) above
T2 sequence (P01024 996-1303 limits assumed): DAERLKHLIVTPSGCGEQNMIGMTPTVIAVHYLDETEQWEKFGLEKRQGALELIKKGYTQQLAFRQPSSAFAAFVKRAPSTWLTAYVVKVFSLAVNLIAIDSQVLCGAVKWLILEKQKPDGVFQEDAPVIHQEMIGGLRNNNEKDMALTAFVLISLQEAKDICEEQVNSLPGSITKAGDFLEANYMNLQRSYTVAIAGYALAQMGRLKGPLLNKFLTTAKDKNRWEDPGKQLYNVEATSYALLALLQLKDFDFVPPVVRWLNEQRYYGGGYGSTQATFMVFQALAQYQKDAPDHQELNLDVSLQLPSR
Chain of His-C3d N1134A (human) (P01024 996-1303, stated change not applied): as the sequence (P01024 996-1303 limits assumed) above
T5 sequence (P01024 996-1303 limits assumed): as above
T6 sequence (P01024 996-1303 L1109A limits assumed): as the sequence (P01024 996-1303 limits assumed) above, with L114A counted along it
T7 sequence (P01024 672-748 limits assumed): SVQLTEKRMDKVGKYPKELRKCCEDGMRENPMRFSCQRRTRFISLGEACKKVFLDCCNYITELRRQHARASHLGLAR
T9 sequence (P01024 996-1303 E1110A limits assumed): as the sequence (P01024 996-1303 limits assumed) above, with E115A counted along it
T8 sequence (P01024 23-667 limits assumed, chain 1 of 3): as the sequence (P01024 23-667 limits assumed, chain 1 of 2) above
T8 sequence (P01024 749-954 limits assumed, chain 2 of 3): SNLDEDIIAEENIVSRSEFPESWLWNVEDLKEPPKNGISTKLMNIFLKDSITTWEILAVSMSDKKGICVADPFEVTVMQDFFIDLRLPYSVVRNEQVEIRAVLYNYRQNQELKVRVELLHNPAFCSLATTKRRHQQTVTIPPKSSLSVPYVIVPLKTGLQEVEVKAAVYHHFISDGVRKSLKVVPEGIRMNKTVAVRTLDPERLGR
T8 sequence (P01024 1321-1663 limits assumed, chain 3 of 3): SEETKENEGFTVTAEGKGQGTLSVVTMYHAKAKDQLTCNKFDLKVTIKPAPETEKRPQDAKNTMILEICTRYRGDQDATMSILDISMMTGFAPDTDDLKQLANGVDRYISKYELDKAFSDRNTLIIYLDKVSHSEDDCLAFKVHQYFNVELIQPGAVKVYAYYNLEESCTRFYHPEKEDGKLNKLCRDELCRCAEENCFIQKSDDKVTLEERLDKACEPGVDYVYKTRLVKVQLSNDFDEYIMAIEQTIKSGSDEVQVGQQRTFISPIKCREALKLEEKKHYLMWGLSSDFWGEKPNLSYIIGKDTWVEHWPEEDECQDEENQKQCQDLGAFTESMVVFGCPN

With “His-ISG65 18-363-Avi, biotinylated at the C-terminal Avi-tag (receptor)” the koff (His-C3d N1134A (human) [1]) was 0.0542 s⁻¹, the ISG65 binding (%) (His-C3d N1134A (human) [2]) was 25% and the Kd (His-C3d N1134A (human) [3]) was 28.6 nM. For the same molecule, the kon (His-C3d N1134A (human) [4]) was 1.89e+06 M⁻¹ s⁻¹.

B1: ISG65 M2 (thermostable mutant of the ISG65 extracellular domain 18-363 with N-terminal His-tag) (receptor)
chain: MGSSHHHHHHSSGLVPRGSHMLLVIGSEDNRVPGDKKLTKEGAAALCKMKHLADKVAKERSQELKDRTQNFAGYIEFELYRIDYWLEKLNGPKGRKDGYAKLSDSDIKKVKEIFEKAKDGITKQLPEAKKAAEEAEKLHQEVKEAAEKARGQDLDDDTAKSTGLYRVLNWYCITKEERHNATPNCDGIQFRKHYLSVNRSAIDCSSTSYEENYDWSANALQVALNSWEDKKPKKLESAGSDKNCNIGQSSESHPCTMTEEWQTHYKETIEKLRELEEAYQRGKKAHDDMLGYANTAYAVNTKVEQEKPLSEVIAAAKEAGKKGAKIIIPAAAPATPTNSTKNDDSAPTEHVDRGIATNETQVEVGID
With B1 the “relative AP50 of human plasma, day 0” value [5] was 15 fold.

B2: His-ISG65 18-363 (extracellular domain of ISG65 of Trypanosoma brucei gambiense, Tbg.972.2.1600, with N-terminal hexa-histidine tag) (receptor)
chain: MGSSHHHHHHSSGLVPRGSHMLLVIGSEDNRVPGDKKLTKEGAAALCKMKHLADKVAKERSQELKDRTQNFAGYIEFELYRIDYWLEKLNGPKGRKDGYAKLSDSDIEKVKEIFNKAKDGITKQLPEAKKAGEEAGKLHTEVKKAAENARGQDLDDDTAKSTGLYRVLNWYCITKEERHNATPNCDGIQFRKHYLSVNRSAIDCSSTSYEENYDWSANALQVALNSWEDVKPKKLESAGSDKNCNIGQSSESHPCTMTEEWQTPYKETVEKLRELEDAYQRGKKAHDAMLGYANTAYAVNTKVEQEKPLTEVIAAAKEAGKKGAKIIIPAAAPATPTNSTKNDDSAPTEHVDRGIATNETQVEVGID
notes: Expressed in E. coli T7 shuffle cells; also called ISG65 wt
In the case of B2, the koff [6] is reported as 0.04 s⁻¹, the Kd [7] is reported as 27.9 nM and the “relative AP50 of human plasma, day 0” value [5] is reported as 6 fold. For the same molecule, the kon [8] was 1e+06 M⁻¹ s⁻¹.

B3: His-ISG65 18-363-Avi, biotinylated at the C-terminal Avi-tag (receptor)
chain: B2 chain
modifications: site-specific biotinylation of the C-terminal Avi-tag
notes: SPR ligand captured on a Series S sensor chip CAP; also called ISG65-Avi; biotinylated ISG65; not shown: C-terminal Avi-tag
B3 gave a Kd [9] of 129 nM, a Kd [10] of 18 nM and a Kd [11] of 7.2 nM. For the same molecule, the kon [12] was 262000 M⁻¹ s⁻¹, the kon [13] was 81800 M⁻¹ s⁻¹ and the kon [14] was 942000 M⁻¹ s⁻¹. For the same molecule, the kon [15] was 5.24e+06 M⁻¹ s⁻¹, the Kd (His-C3d L1109A [16]) was 52.9 nM and the Kd [17] was 18100 nM. For the same molecule, the Kd [18] was 80.9 nM, the koff [19] was 0.0212 s⁻¹ and the koff [20] was 0.0543 s⁻¹. The koff [21] was 0.0379 s⁻¹, the binding result [22] was “no binding (tested: 280 nM)” and the “ISG65 binding (%)” value (His-C3d E1110A) was 8%. For the same molecule, the “ISG65 binding (%)” value (His-C3d L1109A [23]) was 45%, the “ISG65 binding (%)” value [24] was 100% and the koff [25] was 0.017 s⁻¹.

B4: His-ISG65 18-363 Y70A (receptor)
chain: B2 chain with Y74A
notes: also called ISG65 Y70A
With B4 the koff2 [26] was 0.58 s⁻¹, the kon [27] was 118000 M⁻¹ s⁻¹ and the “C3d binding (%)” value [28] was 36%. The Kd [29] was 78.2 nM and the koff [30] was 0.14 s⁻¹.

B5: His-ISG65 18-363 W211A (receptor)
chain: B2 chain with W215A
notes: also called ISG65 W211A
B5 was tested, and the koff2 [26] was 0.39 s⁻¹, the kon [27] was 320000 M⁻¹ s⁻¹ and the “C3d binding (%)” value [28] was 42%. For the same molecule, the Kd [29] was 66.8 nM and the koff [30] was 0.16 s⁻¹.

B6: His-ISG65 18-363 T297A (receptor)
chain: B2 chain with T301A
notes: also called ISG65 T297A
Molecule B6 has a kon [31] of 171000 M⁻¹ s⁻¹, a Kd [26] of 182 nM and a koff2 [26] of 0.002 s⁻¹. The “C3d binding (%)” value [28] was 15% and the koff [32] was 0.05 s⁻¹.
